Experimental data from the RNAGym collection of RNA variant scans (doi:10.7554/elife.90254).

B1: LINE1-full (parent)
chain: UACGUAGGUGGUUUUCCCCUGAUAGUGCUAAGGGGGCCUGGAAGUUUGGACUGGGCAGAGCUCAACACAGCGUGGCAAAGUGGCUGUGGCUAGACUGCCUCUCUGGAUUCCUCGUCACUCAGCAGGGCAUCUCUGAGAGAAAUGCC

Variants of: B1
Assay: self-cleavage, relative activity (ratio to wild type); higher = more cleavage; in vitro, sequencing; the parent is a self-cleaving ribozyme

Row | Variant | self-cleavage
1 | C18U A77G | 1.91
2 | C68U A107U | 0.19
3 | U26G A77G | 2.53
4 | G10C U96A | 0.22
5 | A65U C111U | 0.24
6 | A65G U85G | 0.07
7 | U1C U108C | 0.67
8 | A77U U102C | 1.24
9 | G34U U132C | 1.51
10 | U12A U52G | 2.35
11 | C71A C145U | 0.18
12 | U52A C111A | 1.25
13 | A43G A64C | 0.2
14 | A30G A69C | 0.26
15 | C37G U143C | 1.38
16 | U87A A129U | 0.08
17 | U29A A136U | 1.38
18 | A65G U81C | 0.09
19 | U62G U73C | 0
20 | U62C U96C | 0.06
21 | A57C U81C | 0.04
22 | A42C A43G | 1.13
23 | A30U U47G | 0.8
24 | A30U U47C | 1.07

Row | Variant | self-cleavage
25 | A94U U108C | 0.46
26 | G21C U143C | 1.97
27 | G40A U85C | 0.04
28 | U85C U109C | 0.17
29 | A69U G97C | 0
30 | U1A C84U | 0.22
31 | A22G U96A | 0.13
32 | G48A A124G | 0.92
33 | U15G A138G | 0.53
34 | A2G A142G | 0.93
35 | U9A C110U | 1.06
36 | A43G G89U | 0.04
37 | C3U A42G | 1.22
38 | G8U A136G | 0.46
39 | G32A U119C | 1.29
40 | U5C G105U | 1.32
41 | A43U C98G | 0.06
42 | A22G G127U | 1.67
43 | U20A U132A | 1.61
44 | U62C G74A | 0.04
45 | U81A A92G | 0.15
46 | G11A U109C | 1.4
47 | U9G U14C | 0.68
48 | G7U U15A | 0.97

Row | Variant | self-cleavage
49 | G55U C113U | 0.07
50 | A42G G135A | 1.69
51 | A124U A136G | 1.43
52 | A64U A65G | 0.07
53 | C18A A138G | 2.26
54 | A24G U109A | 2.43
55 | U14A U102C | 1.19
56 | U12A U87A | 0.11
57 | U39C U73A | 1
58 | G33A A142G | 1.2
59 | U46C C103A | 1.58
60 | C18U A78G | 0.88
61 | A67U A92G | 0.04
62 | U91A A138G | 0.84
63 | U5G A64G | 0.23
64 | C95U U134C | 0.11
65 | U46C U143G | 1.41
66 | C71A U108C | 0.43
67 | U108C A129U | 1.89
68 | A59U U115A | 0.8
69 | A92U A129G | 0.69
70 | A129G | 1.52
71 | A64U G144A | 0.42
72 | U20C C99U | 0.68

Row | Variant | self-cleavage
73 | C3U U47A | 0.67
74 | U20A C99A | 0.74
75 | C38U G41U | 1.21
76 | U26A A31U | 1.43
77 | A24U A117C | 1.6
78 | U9C G11A | 1.07
79 | U15C C120A | 1.31
80 | C51U U104A | 1.02
81 | A6G A50U | 0.51
82 | U39G U109C | 1.87
83 | U85C U96C | 0.2
84 | A43G U143A | 1.24
85 | U1C A31C | 1.33
86 | A65G G135U | 0.14
87 | A94G U96C | 0.11
88 | C3A A140U | 0.9
89 | A117G A136U | 1.48
90 | U39G A67G | 1.2
91 | A77G U115C | 2.05
92 | A6G A140U | 0.77
93 | A117U A141G | 1.1
94 | U26A G35U | 1.14
95 | A42G C51A | 2.3
96 | G10A A69G | 0.64

Row | Variant | self-cleavage
97 | A42U A92G | 0.09
98 | A30G G139A | 1.31
99 | U9C U81C | 1.21
100 | A30G C84A | 0.22
101 | A59U A142C | 1.03
102 | A31G G127C | 2.39
103 | A31G G32A | 1.25
104 | A22U A42G | 1.54
105 | U5C U14A | 0.86
106 | A43G U45G | 1.53
107 | U9C G10A | 0.86
108 | U62C C118U | 0.03
109 | G8C A22G | 0
110 | A78G G106A | 1.45
111 | A129C U132C | 0.96
112 | G11A C120U | 1.35
113 | U96A U102A | 0.1
114 | A78G U81C | 1.62
115 | A22G G89A | 0.09
116 | G34C A141G | 1.66
117 | G33C A129U | 1.69
118 | G49A U108C | 1.54
119 | U23A A67U | 0.19
120 | A50C A136C | 2.04

Row | Variant | self-cleavage
121 | G93U A140G | 0.05
122 | U46C U115C | 1.66
123 | U85A A140U | 0.09
124 | U45C A94C | 0.04
125 | U20C A64U | 0.65
126 | A57U U112C | 0.01
127 | U26G U62C | 0.19
128 | A65G G127A | 0.05
129 | U39C U96A | 0.08
130 | U20C A43U | 1.4
131 | A77G C98A | 0.23
132 | G41U A121G | 1.53
133 | A42G G106U | 1.1
134 | G10A U119C | 1
135 | A30G A121G | 0.52
136 | U52C A78G | 1
137 | U14C A24G | 0.81
138 | G70C A142G | 0.14
139 | C18A U81C | 1.31
140 | U9A G70A | 0.12
141 | U100A A138G | 1.18
142 | U13C U23A | 1.09
143 | A22G A67C | 0.23
144 | A79G G105U | 1.19

Row | Variant | self-cleavage
145 | A79G G105A | 1.29
146 | G33U A136G | 1.7
147 | U85G A138U | 0
148 | U91C A138G | 1.98
149 | G55C A67G | 0.05
150 | U15A A65U | 0.29
151 | A140G | 1.07
152 | A50G C90G | 0.06
153 | G54A U85C | 0.03
154 | A43G U87A | 0.08
155 | U12C A24U | 1.18
156 | A59U G75A | 0.51
157 | A79G A142U | 2.04
158 | U96A A142G | 0.08
159 | G25A U39A | 1.15
160 | U39C G105U | 0.85
161 | G53U A65U | 0.27
162 | U12G U81A | 2.33
163 | A121U A129G | 1.77
164 | A6G U119A | 1.52
165 | C51U C131A | 1.23
166 | U20C G89A | 0.09
167 | U14A C111A | 0.72
